Results from patent publication US20120117670A1 (U3 PHARMA, published 2012).

T1: human receptor tyrosine kinase AXL (human, UniProt P30530 26-894)
T1 construct: also called hAXL; human AXL on NIH3T3-AXL cI.7, RatI-AXL cI.2 and human cancer cell lines
T1 sequence: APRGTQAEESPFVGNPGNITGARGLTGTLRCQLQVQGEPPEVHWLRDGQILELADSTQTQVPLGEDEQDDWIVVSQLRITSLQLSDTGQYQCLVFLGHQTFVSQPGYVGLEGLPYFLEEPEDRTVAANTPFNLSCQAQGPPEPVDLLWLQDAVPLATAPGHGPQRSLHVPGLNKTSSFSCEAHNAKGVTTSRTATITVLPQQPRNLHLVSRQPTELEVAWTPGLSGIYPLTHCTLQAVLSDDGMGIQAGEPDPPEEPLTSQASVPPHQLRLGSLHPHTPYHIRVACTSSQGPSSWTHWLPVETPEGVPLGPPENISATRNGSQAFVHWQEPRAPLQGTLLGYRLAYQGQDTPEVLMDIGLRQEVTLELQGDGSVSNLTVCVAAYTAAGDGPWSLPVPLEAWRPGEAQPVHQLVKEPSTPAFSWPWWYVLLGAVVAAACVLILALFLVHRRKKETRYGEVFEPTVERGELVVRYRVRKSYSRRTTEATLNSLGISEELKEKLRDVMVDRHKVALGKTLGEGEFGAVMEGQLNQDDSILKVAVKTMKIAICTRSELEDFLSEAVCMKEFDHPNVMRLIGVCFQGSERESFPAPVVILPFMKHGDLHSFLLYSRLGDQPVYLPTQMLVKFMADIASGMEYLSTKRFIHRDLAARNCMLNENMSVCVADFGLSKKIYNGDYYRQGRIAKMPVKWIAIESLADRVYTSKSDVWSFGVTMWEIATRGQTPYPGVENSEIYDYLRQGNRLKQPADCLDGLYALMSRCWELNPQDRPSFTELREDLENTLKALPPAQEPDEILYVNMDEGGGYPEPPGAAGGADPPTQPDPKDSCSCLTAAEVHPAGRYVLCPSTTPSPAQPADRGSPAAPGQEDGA

T2: Human AXL-Fc (R&D Systems, #154-AL) (human, UniProt P30530 26-451)
T2 construct: Bought reagent; also called human AXL-Fc fusion protein; human AXL-Fc protein; not shown: Fc part of the bought fusion protein
T2 sequence: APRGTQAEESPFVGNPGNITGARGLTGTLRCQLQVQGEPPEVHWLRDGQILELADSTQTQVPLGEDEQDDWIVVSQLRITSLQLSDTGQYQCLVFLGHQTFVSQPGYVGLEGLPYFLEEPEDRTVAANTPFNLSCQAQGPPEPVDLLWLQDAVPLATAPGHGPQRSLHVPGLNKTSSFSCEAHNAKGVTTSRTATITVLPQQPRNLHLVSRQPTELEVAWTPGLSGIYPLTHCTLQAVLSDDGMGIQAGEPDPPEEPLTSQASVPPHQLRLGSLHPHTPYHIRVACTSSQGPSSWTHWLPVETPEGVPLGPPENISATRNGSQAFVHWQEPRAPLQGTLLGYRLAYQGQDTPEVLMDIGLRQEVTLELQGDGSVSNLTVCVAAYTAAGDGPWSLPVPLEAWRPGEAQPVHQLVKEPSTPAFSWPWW


Experiments:
[1] = target: T1, human receptor tyrosine kinase AXL; assay: FACS Scatchard on human AXL overexpressing NIH3T3 cells; apparent KD (KDapp)
Description: Human AXL overexpression NIH3T3 cells were harvested by incubation with 10 mM EDTA in PBS and resuspended at 6 million cells per ml in FACS buffer (PBS pH 7.4, 3% FCS, 0.1% NaN3). In a round-bottom microtiter plate, 100 μl of cell suspension were added to 100 μl of antibody solution containing antibodies 11B7, 11D5, ch11B7-IgG1, ch11B7-IgG2, ch11D5-IgG1 or ch11D5-IgG2 at concentrations between 40 and 0.002 μg/ml (266 and 0.01 nM) in FACS buffer. Antibody binding was allowed to proceed for 2 hours on ice. Then, cells were washed twice with 250 μl FACS buffer per well, and resuspended in 200 μl of secondary antibody (anti-rat-PE; Jackson) diluted 1:50 in FACS buffer. After 45 minutes of incubation, cells were again washed twice in FACS buffer and resuspended in […] PBS for FACS analysis. Analysis was carried out on a Beckman-Coulter FACS FC500. To determine the apparent affinity constant KDapp, mean fluorescence values were plotted against the ratio of mean fluorescence and the corresponding antibody concentration ([M]). The calculated KDapp resulted from the inverse slope of the straight line are listed below: […]

[2] = target: T2, Human AXL-Fc (R&D Systems, #154-AL); assay: ELISA on plate-adsorbed human AXL-Fc (1 ug/ml), 5-fold antibody dilution series, AP-conjugated goat anti-human IgG, fluorescent substrate (Example 14)
[3] = target: T2, Human AXL-Fc (R&D Systems, #154-AL); assay: ELISA on plate-adsorbed human AXL-Fc (1 ug/ml), 5-fold antibody dilution series, AP-conjugated goat anti-human IgG, fluorescent substrate (Example 13)
[4] = target: T3, NHis-hAXL26-131 (human AXL single IG domain) (human, UniProt P30530 33-138); assay: ELISA on plate-adsorbed human AXL IG-domain fragment (1 ug/ml), antibody at 0.04 ug/ml, fluorescent substrate (Example 16)
T3 construct: Made in E. coli; tag kept
Description: Then, each solution was dispensed in the amount of […] to an Immuno Plate (manufactured by Nalge Nunc International K.K., #437111) and left standing overnight at 4° C. to adsorb the peptide onto the plate. On the next day, the wells were washed 5 times with a PBS-T solution (PBS and 0.05% (v/v) Tween 20). Then, a solution containing skim milk (manufactured by Morinaga Milk Industry Co., Ltd.) diluted with PBS to 5% was dispensed in an amount of 100 μl/well and left standing at room temperature for 2 hours. The solutions in the wells were removed, and the wells were washed 5 times with a PBS-T solution. The rat anti-human AXL monoclonal antibody #11B7 was diluted to 0.04 μg/ml with a PBS solution containing 0.5% skim milk. Then, the solution was dispensed in amount of 100 μl/well and left standing at room temperature for 2 hours. The wells were washed 5 times with a PBS-T solution. […] Then, a fluorescent substrate solution (manufactured by Roche Diagnostics K.K., #11681982001) was added in the amount of 100 μl/well to perform fluorescence reaction. The fluorescence intensity on the human AXL-IG domain-adsorbed plate was measured 15 minutes after the addition of the fluorescent substrate solution using a SpectraMax M5 (manufactured by Molecular Devices Corp.). […]

Kd [1] [nM] | EC50 (read off the curve) [2] [µg/mL] | EC50 (read off the curve) [3] [µg/mL] | binding result [4] | Binder
0.81 |  |  |  | rat anti-human AXL monoclonal antibody #11D5 (antibody, rat IgG2a, V domains shown, Rat IgG2a/kappa from hybridoma; also called III11D5) VH: EVQLQESGPGLVKPSQSLSLTCSVTGYSITSNYWGWIRKFPGNKMEWIGHITNSGNTTYNPSLKSRISISRDTSRNQFFLQLNSVTTEDTATYYCAKGAFDYWGQGVMVTVSS VL: DIQMTQSPSSMSTSLGDRVTITCRASQDIGNYLSWFQQKVGKSPRRMIYGAIKLAVGVPSRFSGSRSGSDYSLTISSLESEDMAIYYCLQYIQFPLTFGSGTKLELKR
0.38 |  |  | no binding (tested: 0.04 ug/ml) | rat anti-human AXL monoclonal antibody #11B7 (antibody, rat IgG1, V domains shown, Rat IgG1/kappa from hybridoma; also called I11B7; rat anti-AXL antibody 11B7) VH: EVQLQESGPGLVKPSQSLSLTCSVTGYSITSNYWGWIRKFPGDKMEWMGYITYSGSTSYNPSLKSRISITRDTSKNQFFLQLNSVTSEDTATYYCAITTFYYWGQGVMVTVSS VL: DIQMTQAPSSLPASLGDRVTITCRASQDIGNYLRWFQQKPGKSPRLMISGATNLAAGVPSRFSGSRSGSDYSLTISSLESEDMADYYCLQSKESPWTFGGGTKLELKR

Further lines, the binder ahead of its results:

Binder | Kd [1] [nM] | EC50 (read off the curve) [2] [µg/mL] | EC50 (read off the curve) [3] [µg/mL] | binding result [4]
chimeric anti-AXL antibody ch11D5-IgG1 (antibody, V domains shown, Rat/human chimera, human IgG1/kappa; also called chm11D5; human chimeric antibody) VH: EVQLQESGPGLVKPSQSLSLTCSVTGYSITSNYWGWIRKFPGNKMEWIGHITNSGNTTYNPSLKSRISISRDTSRNQFFLQLNSVTTEDTATYYCAKGAFDYWGQGVMVTVSS VL: DIQMTQSPSSMSTSLGDRVTITCRASQDIGNYLSWFQQKVGKSPRRMIYGAIKLAVGVPSRFSGSRSGSDYSLTISSLESEDMAIYYCLQYIQFPLTFGSGTKLELKR | 0.4 | ~0.01 |  | 
chimeric anti-AXL antibody ch11B7-IgG1 (antibody, V domains shown, Rat/human chimera, human IgG1/kappa; also called chm11B7; chimeric anti-AXL mAb #11B7) VH: EVQLQESGPGLVKPSQSLSLTCSVTGYSITSNYWGWIRKFPGDKMEWMGYITYSGSTSYNPSLKSRISITRDTSKNQFFLQLNSVTSEDTATYYCAITTFYYWGQGVMVTVSS VL: DIQMTQAPSSLPASLGDRVTITCRASQDIGNYLRWFQQKPGKSPRLMISGATNLAAGVPSRFSGSRSGSDYSLTISSLESEDMADYYCLQSKESPWTFGGGTKLELKR | 0.6 |  | ~0.02 | 
